In US20050266512:

Test system: native proaerolysin

Substance: trypsin
- decrease in absorbance (erythrocyte lysis in response to channel formation by active aerolysin): The solid line represents native proaerolysin activated with trypsin.
